Reference: patent US6998260 (PROMEGA, dated 2006)

B1: recombinant human β-I tryptase (from pPIC9-HumTry, expressed in Pichia pastoris) (enzyme)
chain: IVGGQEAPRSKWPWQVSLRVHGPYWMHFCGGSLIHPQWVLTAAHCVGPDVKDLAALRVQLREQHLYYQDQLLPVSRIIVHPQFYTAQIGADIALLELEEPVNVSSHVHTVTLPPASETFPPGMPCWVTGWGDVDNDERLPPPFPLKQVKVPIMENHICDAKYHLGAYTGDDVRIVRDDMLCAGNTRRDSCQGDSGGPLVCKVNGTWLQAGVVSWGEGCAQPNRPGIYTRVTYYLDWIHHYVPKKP
modifications: N-glycosylated at two sites (N102 and N204, as the filing says)
notes: Secreted as a mature monomer that self-assembles into a homotetramer; On the Western blots (SDS-PAGE) it stood as denatured subunits; also called rh β I; R βI tryptase
B2: human β-I tryptase active site mutant S194A (enzyme)
chain: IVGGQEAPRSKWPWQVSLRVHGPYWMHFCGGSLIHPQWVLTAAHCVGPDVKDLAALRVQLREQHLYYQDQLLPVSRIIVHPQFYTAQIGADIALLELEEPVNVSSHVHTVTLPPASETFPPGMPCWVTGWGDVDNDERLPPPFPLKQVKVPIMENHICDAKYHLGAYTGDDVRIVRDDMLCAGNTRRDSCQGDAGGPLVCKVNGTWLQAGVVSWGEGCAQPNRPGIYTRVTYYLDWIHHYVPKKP
notes: also called β-I S194A active site mutant; S194A β-I tryptase active site mutant
B3: recombinant human β-II tryptase (from pPIC9-HumTryN102K, expressed in Pichia pastoris) (enzyme)
chain: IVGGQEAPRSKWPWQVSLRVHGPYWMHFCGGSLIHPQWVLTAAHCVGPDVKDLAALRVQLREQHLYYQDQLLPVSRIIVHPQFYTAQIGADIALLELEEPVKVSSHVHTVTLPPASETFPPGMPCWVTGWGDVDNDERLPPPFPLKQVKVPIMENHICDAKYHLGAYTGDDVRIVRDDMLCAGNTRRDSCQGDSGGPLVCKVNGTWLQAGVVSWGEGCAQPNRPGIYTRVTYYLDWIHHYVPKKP
modifications: N-glycosylated at one site
notes: Homotetramer by gel filtration; also called rh β II; R βII tryptase

Biological target: the molecule itself
Assay: gel filtration; self-association of subunits into a homotetramer

Binding result, binds:
B1, B2, B3
